Changes are numbered by the printed parent chain. In names and notes the source's numbering stands.
T1: CCL18_HUMAN (human, UniProt P55774 21-89)
T1 sequence: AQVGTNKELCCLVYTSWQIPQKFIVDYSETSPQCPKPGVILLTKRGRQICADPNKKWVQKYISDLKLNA

T2: CCL16_HUMAN (human, UniProt O15467 24-120)
T2 sequence: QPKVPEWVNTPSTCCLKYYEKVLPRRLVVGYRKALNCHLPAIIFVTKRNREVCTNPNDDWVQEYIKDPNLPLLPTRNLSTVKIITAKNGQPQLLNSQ

T3: CCL4_HUMAN (human, UniProt P13236 24-92)
T3 sequence: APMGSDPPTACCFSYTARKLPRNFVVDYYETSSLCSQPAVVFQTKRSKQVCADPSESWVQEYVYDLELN

T4: CCL15_HUMAN (human, UniProt Q16663 22-113)
T4 sequence: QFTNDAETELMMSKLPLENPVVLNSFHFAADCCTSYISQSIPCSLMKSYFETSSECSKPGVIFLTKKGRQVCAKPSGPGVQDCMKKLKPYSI

T5: CCL24_HUMAN (human, UniProt O00175 27-104)
T5 sequence: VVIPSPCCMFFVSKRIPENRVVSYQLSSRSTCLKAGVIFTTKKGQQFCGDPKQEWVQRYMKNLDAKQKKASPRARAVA

T6: CCL19_HUMAN (human, UniProt Q99731 22-98)
T6 sequence: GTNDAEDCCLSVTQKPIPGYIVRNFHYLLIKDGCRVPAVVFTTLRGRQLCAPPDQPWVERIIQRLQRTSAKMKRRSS

T7: CCL17_HUMAN (human, UniProt Q92583 24-94)
T7 sequence: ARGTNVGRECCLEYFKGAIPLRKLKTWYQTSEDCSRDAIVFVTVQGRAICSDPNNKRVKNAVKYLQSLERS

T8: CCL1_HUMAN (human, UniProt P22362 24-96)
T8 sequence: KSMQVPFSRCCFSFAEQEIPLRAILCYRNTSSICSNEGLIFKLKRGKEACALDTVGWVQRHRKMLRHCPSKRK

T9: CCL27_HUMAN (human, UniProt Q9Y4X3 25-112)
T9 sequence: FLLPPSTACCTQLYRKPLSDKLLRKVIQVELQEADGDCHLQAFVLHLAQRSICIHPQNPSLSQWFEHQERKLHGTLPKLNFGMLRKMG

T10: CCL3_HUMAN (human, UniProt P10147 24-92)
T10 sequence: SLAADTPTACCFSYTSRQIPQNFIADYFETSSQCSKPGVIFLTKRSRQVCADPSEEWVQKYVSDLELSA

T11: CCL14_HUMAN (human, UniProt Q16627 22-93)
T11 sequence: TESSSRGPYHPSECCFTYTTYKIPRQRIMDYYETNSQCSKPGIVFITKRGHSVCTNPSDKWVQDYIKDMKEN

T12: CCL22_HUMAN (human, UniProt O00626 25-93)
T12 sequence: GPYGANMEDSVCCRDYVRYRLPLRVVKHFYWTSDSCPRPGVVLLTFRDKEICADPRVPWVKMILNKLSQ

T13: CCL21_HUMAN (human, UniProt O00585 24-134)
T13 sequence: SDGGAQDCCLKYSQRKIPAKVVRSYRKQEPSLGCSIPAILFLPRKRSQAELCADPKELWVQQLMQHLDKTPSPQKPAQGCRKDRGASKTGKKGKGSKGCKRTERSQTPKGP

T14: CCL23_HUMAN (human, UniProt P55773 22-120)
T14 sequence: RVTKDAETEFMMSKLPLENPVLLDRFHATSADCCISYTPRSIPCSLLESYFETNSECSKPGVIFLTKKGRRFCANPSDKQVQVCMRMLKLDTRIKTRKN

T15: CCL4L1_HUMAN (human, UniProt Q8NHW4 24-92)
T15 sequence: T3 sequence with S47G

T16: CCL8_HUMAN (human, UniProt P80075 24-99)
T16 sequence (looked up): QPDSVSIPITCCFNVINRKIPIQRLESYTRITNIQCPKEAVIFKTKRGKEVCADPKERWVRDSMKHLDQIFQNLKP

B1: P1156:G4S:P991 (designed binder)
chain: ADDDNELFTVQYCGMNCTKDEGGTWTGCTGKKEGCKCYHESGKNYGLCLSTEYTDFSQYGNPSDSEIEAAKPKRSDTLSHGGGGSENGEGTTQPDYDNSTDYYNYEDFKCTCPAPHLNNTNGTVMKPIGCYYTCNVTRCTAPDTYPCYNLTEHQAKNLTTSPTTLCAVGNCDHGICVPNGTKELCFKAPNLEE
notes: also called two-warhead evasin
B2: P991:G4S:P1156 (designed binder)
chain: ENGEGTTQPDYDNSTDYYNYEDFKCTCPAPHLNNTNGTVMKPIGCYYTCNVTRCTAPDTYPCYNLTEHQAKNLTTSPTTLCAVGNCDHGICVPNGTKELCFKAPNLEEGGGGSADDDNELFTVQYCGMNCTKDEGGTWTGCTGKKEGCKCYHESGKNYGLCLSTEYTDFSQYGNPSDSEIEAAKPKRSDTLSH

Assays:
Assay in all cases: BLI
CCL18_HUMAN = molecular target: T1, CCL18_HUMAN
CCL16_HUMAN = molecular target: T2, CCL16_HUMAN
CCL4_HUMAN = molecular target: T3, CCL4_HUMAN
CCL15_HUMAN = molecular target: T4, CCL15_HUMAN
CCL13_HUMAN = CCL13_HUMAN (human, UniProt Q99616 24-98)
Chain of CCL13_HUMAN (Q99616 24-98 limits assumed): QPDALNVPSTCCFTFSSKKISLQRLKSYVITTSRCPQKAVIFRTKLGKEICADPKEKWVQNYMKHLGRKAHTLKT

CCL24_HUMAN = molecular target: T5, CCL24_HUMAN
CCL19_HUMAN = molecular target: T6, CCL19_HUMAN
CCL17_HUMAN = molecular target: T7, CCL17_HUMAN
CCL7_HUMAN = CCL7_HUMAN (human, UniProt P80098 24-99)
Chain of CCL7_HUMAN (P80098 24-99 limits assumed): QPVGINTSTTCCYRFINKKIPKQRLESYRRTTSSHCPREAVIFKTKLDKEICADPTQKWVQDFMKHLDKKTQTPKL

CCL1_HUMAN = molecular target: T8, CCL1_HUMAN
CCL27_HUMAN = molecular target: T9, CCL27_HUMAN
CCL3_HUMAN = molecular target: T10, CCL3_HUMAN
CCL14_HUMAN = molecular target: T11, CCL14_HUMAN
CCL22_HUMAN = molecular target: T12, CCL22_HUMAN
CCL20_HUMAN = CCL20_HUMAN (human, UniProt P78556 27-96)
Chain of CCL20_HUMAN (P78556 27-96 limits assumed): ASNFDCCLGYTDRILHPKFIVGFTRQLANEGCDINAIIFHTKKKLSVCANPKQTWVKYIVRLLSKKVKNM

CCL21_HUMAN = molecular target: T13, CCL21_HUMAN
CCL23_HUMAN = molecular target: T14, CCL23_HUMAN
CCL2_HUMAN = CCL2_HUMAN (human, UniProt P13500 24-99)
Chain of CCL2_HUMAN (P13500 24-99 limits assumed): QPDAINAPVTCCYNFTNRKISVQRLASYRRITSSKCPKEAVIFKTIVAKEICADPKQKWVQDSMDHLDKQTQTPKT

CCL4L1_HUMAN = molecular target: T15, CCL4L1_HUMAN
CCL11_HUMAN = CCL11_HUMAN (human, UniProt P51671 24-97)
Chain of CCL11_HUMAN (P51671 24-97 limits assumed): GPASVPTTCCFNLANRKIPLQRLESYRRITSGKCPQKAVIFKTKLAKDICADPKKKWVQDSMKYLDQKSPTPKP

CCL8_HUMAN = molecular target: T16, CCL8_HUMAN
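Note: biolayer interferometry of evasin binding to chemokines, poorly fitted curves (R² under 0.9) discarded, every experiment run three or more times.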

Binder	Kd (CCL18_HUMAN)	RT (CCL18_HUMAN)	Kd (CCL16_HUMAN)	RT (CCL16_HUMAN)	Kd (CCL4_HUMAN)	RT (CCL4_HUMAN)	Kd (CCL15_HUMAN)	RT (CCL15_HUMAN)	Kd (CCL13_HUMAN)	RT (CCL13_HUMAN)	Kd (CCL24_HUMAN)	RT (CCL24_HUMAN)	binding result (CCL19_HUMAN)	Kd (CCL17_HUMAN)	RT (CCL17_HUMAN)	Kd (CCL7_HUMAN)	RT (CCL7_HUMAN)	Kd (CCL1_HUMAN)	RT (CCL1_HUMAN)	Kd (CCL27_HUMAN)	also measured
B1	0.201 nM	182 min	0.503 nM	92.5 min	3.55 nM	26.6 min	166 nM	0.66 min	0.207 nM	221 min	3.58 nM	6.75 min	no binding	7.44 nM	8.6 min	0.435 nM	231 min	16.6 nM	2.01 min	36.2 nM	RT (CCL27_HUMAN): 3.4 min; Kd (CCL3_HUMAN): 1.89 nM; RT (CCL3_HUMAN): 38.2 min; Kd (CCL14_HUMAN): 0.664 nM; RT (CCL14_HUMAN): 159 min; Kd (CCL22_HUMAN): 2.18 nM; RT (CCL22_HUMAN): 15.8 min; binding result (CCL20_HUMAN): no binding; Kd (CCL21_HUMAN): 19.9 nM; RT (CCL21_HUMAN): 15.3 min; Kd (CCL23_HUMAN): 7 nM; RT (CCL23_HUMAN): 28.5 min; Kd (CCL2_HUMAN): 32.1 nM; RT (CCL2_HUMAN): 3.25 min; Kd (CCL4L1_HUMAN): 1.28 nM; RT (CCL4L1_HUMAN): 33.8 min; Kd (CCL11_HUMAN): 1.54 nM; RT (CCL11_HUMAN): 24.8 min; Kd (CCL8_HUMAN): 7.45 nM; RT (CCL8_HUMAN): 15.3 min
B2	0.143 nM	293 min	0.636 nM	72.4 min	3.54 nM	28.1 min	127 nM	0.87 min	0.176 nM	276 min	3.18 nM	8.52 min	no binding	5.8 nM	11.6 min	0.287 nM	375 min	7.66 nM	4.13 min	42.6 nM	RT (CCL27_HUMAN): 2.91 min; Kd (CCL3_HUMAN): 2.22 nM; RT (CCL3_HUMAN): 37.1 min; Kd (CCL14_HUMAN): 0.835 nM; RT (CCL14_HUMAN): 135 min; Kd (CCL22_HUMAN): 2.36 nM; RT (CCL22_HUMAN): 15.6 min; binding result (CCL20_HUMAN): no binding; Kd (CCL21_HUMAN): 18.2 nM; RT (CCL21_HUMAN): 17.7 min; Kd (CCL23_HUMAN): 5.13 nM; RT (CCL23_HUMAN): 35.2 min; Kd (CCL2_HUMAN): 24.8 nM; RT (CCL2_HUMAN): 4.02 min; Kd (CCL4L1_HUMAN): 1.24 nM; RT (CCL4L1_HUMAN): 38.3 min; Kd (CCL11_HUMAN): 1.39 nM; RT (CCL11_HUMAN): 30.6 min; Kd (CCL8_HUMAN): 7.89 nM; RT (CCL8_HUMAN): 16.6 min

Reference: patent publication US20240034757A1 (OXFORD UNIVERSITY INNOVATION, published 2024)
